This is an account of results in IntAct's records for PubMed 19933576.

B1: Prelamin-A/C (Homo sapiens), P02545 (parent)
chain: METPSQRRATRSGAQASSTPLSPTRITRLQEKEDLQELNDRLAVYIDRVRSLETENAGLRLRITESEEVVSREVSGIKAAYEAELGDARKTLDSVAKERARLQLELSKVREEFKELKARNTKKEGDLIAAQARLKDLEALLNSKEAALSTALSEKRTLEGELHDLRGQVAKLEAALGEAKKQLQDEMLRRVDAENRLQTMKEELDFQKNIYSEELRETKRRHETRLVEIDNGKQREFESRLADALQELRAQHEDQVEQYKKELEKTYSAKLDNARQSAERNSNLVGAAHEELQQSRIRIDSLSAQLSQLQKQLAAKEAKLRDLEDSLARERDTSRRLLAEKEREMAEMRARMQQQLDEYQELLDIKLALDMEIHAYRKLLEGEEERLRLSPSPTSQRSRGRASSHSSQTQGGGSVTKKRKLESTESRSSFSQHARTSGRVAVEEVDEEGKFVRLRNKSNEDQSMGNWQIKRQNGDDPLLTYRFPPKFTLKAGQVVTIWAAGAGATHSPPTDLVWKAQNTWGCGNSLRTALINSTGEEVAMRKLVRSVTVVEDDEDEDGDDLLHHHHGSHCSSSGDPAEYNLRSRTVLCGTCGQPADKASASGSGAQVGGPISSGSSASSVTVTRSYRSVGGSGGGSFGDNLVTRSYLLGNSSPRTQSPQNCSIM
partner: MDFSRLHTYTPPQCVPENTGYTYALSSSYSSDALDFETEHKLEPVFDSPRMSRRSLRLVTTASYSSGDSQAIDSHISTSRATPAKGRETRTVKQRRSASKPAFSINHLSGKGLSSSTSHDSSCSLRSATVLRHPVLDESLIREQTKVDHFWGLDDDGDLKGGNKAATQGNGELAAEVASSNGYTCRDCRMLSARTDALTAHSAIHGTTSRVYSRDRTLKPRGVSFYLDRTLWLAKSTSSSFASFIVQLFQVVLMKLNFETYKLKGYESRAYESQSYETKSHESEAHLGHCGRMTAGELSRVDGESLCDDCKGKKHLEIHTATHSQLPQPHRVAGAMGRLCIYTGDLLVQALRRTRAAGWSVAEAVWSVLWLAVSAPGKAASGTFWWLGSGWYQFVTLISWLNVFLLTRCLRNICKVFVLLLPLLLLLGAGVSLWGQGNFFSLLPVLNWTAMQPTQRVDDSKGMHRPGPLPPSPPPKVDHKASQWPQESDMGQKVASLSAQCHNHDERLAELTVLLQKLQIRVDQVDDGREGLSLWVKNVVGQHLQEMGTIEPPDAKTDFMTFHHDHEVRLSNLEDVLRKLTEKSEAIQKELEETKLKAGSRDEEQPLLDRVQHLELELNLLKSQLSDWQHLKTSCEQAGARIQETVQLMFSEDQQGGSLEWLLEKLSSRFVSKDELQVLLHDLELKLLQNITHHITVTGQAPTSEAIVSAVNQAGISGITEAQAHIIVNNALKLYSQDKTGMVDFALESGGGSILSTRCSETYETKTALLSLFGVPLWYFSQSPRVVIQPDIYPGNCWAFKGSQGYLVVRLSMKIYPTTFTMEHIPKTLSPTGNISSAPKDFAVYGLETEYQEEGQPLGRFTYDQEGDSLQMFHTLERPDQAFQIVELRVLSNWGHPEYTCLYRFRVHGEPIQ

Variants of B1 are the subject of this assay. The note with it: with sun1_mouse Sun1, Q9D666.
With R527P, the “effect of a mutation on the interaction” value was “disrupting interaction”.
To L530P belongs “disrupting interaction”.
